The supplement of paper PMC10567573

B1: TRIM14 (parent)
chain: REQADSCREQLDIMNDLSNRVWSI
B2: KCNA4 (parent)
chain: YQSGGRLKRPVNVPFDIFTEEVKF

Variants of: B1
Assay: protein stability index of a GFP-peptide fusion (GPS, HEK-293T) (PSI 1-6); higher = more stable
Details: c terminus: a fixed tail appended
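Note: lentivirally expressed fusions sorted by FACS into six bins by GFP to DsRed ratio, PSI derived from sequencing read proportions per bin multiplied by bin number.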

Protein stability index, by site and new letter:
R1: V 2.96 | G 1.86 | A 2.81 | H 2.29 | L 2.32 | P 2.48 | K 1.72 | N 2.56 | Q 2.58 | Y 2.11 | S 3.43 | C 2.15 | F 1.88 | D 2.64 | T 2.75 | I 2.63 | W 2.82 | E 3.17 | M 2.19
Q3: G 1.82 | E 3.01 | F 1.82 | L 1.68 | I 2.04 | M 1.75 | A 2.48 | H 1.87 | C 2.08 | K 1.59 | N 2.13 | D 2.8
E2: I 1.75 | D 2.45 | L 1.25 | N 2.46 | V 1.98 | F 2.92 | K 1.83 | Y 2.83 | G 1.85 | C 1.95 | H 1.53 | Q 1.63 | T 2.13 | W 1.91 | R 1.66 | P 2.33 | M 2.56 | A 1.93 | S 1.28

Variants of: B2
Assay: as above
Details: c terminus: a fixed tail appended

Protein stability index of substitutions, site by site:
L7: T 2.15 | P 1.99 | E 2.16 | S 2.29 | Q 1.68 | W 1.77 | K 2.15 | F 2.4 | A 1.71
R9: M 1.46 | P 1.72 | S 2.1 | D 1.99 | I 1.65 | V 1.69 | A 2.04 | T 1.7 | C 1.63 | H 2.02 | E 2.06 | G 2.31 | L 2.11
V22: N 1.83 | D 2.09 | Y 2.25 | Q 2.08 | I 1.38 | H 1.86 | G 2.34 | L 1.99 | S 2 | F 2.06 | T 1.96 | K 1.59 | C 1.54
K8: P 1.7 | Q 2.56 | D 2.28 | W 5.95 | S 1.93 | I 2.47 | V 1.53 | R 2.67 | E 1.98
Y1: A 2.82 | D 3.12 | L 3.97 | M 2.69 | F 1.6 | C 2.81 | P 2.29 | K 2.88 | N 3.04 | S 3 | I 1.93 | Q 3.33
V11: M 2.32 | D 1.91 | Y 2.06 | L 1.95 | G 1.31 | T 2.15 | E 1.65 | Q 2.36 | N 2.74 | K 1.39 | P 1.82
P14: E 1.42 | Y 2.7 | Q 3.33 | N 2.07 | T 1.51 | C 2.19 | K 1.71 | V 1.56 | R 2.19 | A 1.37 | G 2.98 | L 1.91
G5: E 2.29 | K 2.14 | D 2.11 | P 2.53 | M 1.77 | V 1.63 | W 1.59 | R 1.8 | N 1.94 | Y 1.26 | A 2.32 | H 3.03
F24: K 2.49 | R 2.59 | I 1.71 | L 2.05 | V 2.49 | G 2.26 | Q 2.92 | D 2.11 | Y 2.89 | T 2.18 | E 2.32 | A 1.78 | P 2.25 | H 2.16
G4: V 1.78 | W 2.56 | E 1.99 | K 2.12 | N 1.73 | A 2.09 | F 1.71 | H 2.33 | D 1.96 | C 1.74 | R 2.14 | M 2.08 | L 2.77 | S 1.99 | Y 1.27
P10: S 1.97 | M 1.4 | G 1.53 | R 1.01 | V 2.31 | D 1.38 | K 1.4 | H 1.93 | A 2.16 | I 1.72
D16: W 2.98 | P 1.52 | T 1.29 | M 1.54 | K 1.57 | A 1.83 | Y 2.11 | L 1.85 | V 1.55 | R 2.48
N12: A 1.65 | P 1.55 | Y 1.55 | I 1.44 | K 3.14 | L 2.43 | E 1.22 | T 2.07 | F 2.5 | H 1.91 | S 2.96 | M 2.13
R6: V 1.77 | M 1.47 | T 2.5 | Q 2.15 | K 1.94 | S 1.45 | P 1.85 | H 2.14 | G 1.71 | L 1.51 | I 1.63 | E 1.63 | A 2.19
Q2: M 2.56 | W 1.48 | D 2.97 | K 2.14 | Y 1.55 | N 2.12 | F 2.19 | C 2.63 | V 3.32 | E 2.73 | R 2.22 | G 1.77 | L 1.64
T19: G 1.94 | H 2.83 | C 1.46 | D 2.38 | V 1.96 | Q 1.42 | S 2.09 | R 1.2 | I 1.72 | Y 2.16 | F 2.1 | N 2.33 | E 1.92
I17: T 2.89 | H 1.98 | K 2.04 | Y 1.99 | F 2.25 | P 1.85 | M 1.91 | Q 1.72
F15: S 1.94 | I 2.45 | P 2.01 | G 1.98 | K 2.1 | W 2.12 | D 2.6 | M 3 | Y 1.56 | L 2.15 | E 2.75 | T 2.22 | H 2.47
V13: M 1.61 | C 2.18 | D 1.55 | I 1.75 | A 1.47 | K 2 | T 1.51 | F 1.52 | H 1.91 | P 1.53 | L 1.78
E21: A 1.89 | F 1.55 | Y 2.61 | G 2.36 | P 2.13 | T 1.81 | D 2.37 | M 1.06 | I 2.24 | H 1.77 | V 1.81 | S 1.24 | N 2.63 | C 1.7
K23: V 2.42 | H 1.71 | P 1.44 | N 2.3 | F 2.99 | L 2.53 | D 1.82 | E 1.05 | R 1.96 | A 1.35 | I 2.65 | T 2.36
F18: E 1.81 | C 1.57 | A 2.28 | D 2.01 | R 1.93 | Q 2.65 | K 1.84 | N 2.1 | V 1.67 | P 2.44 | G 2.29 | S 2.43 | I 1.97
S3: G 2.05 | H 2.5 | E 2.57 | K 2.27 | C 1.69 | R 1.37 | F 1.51 | N 1.98 | A 1.7 | P 1.7 | D 3.3 | I 1.63 | Y 1.59
E20: C 2.11 | G 1.57 | T 1.53 | S 1.92 | Q 1.44 | D 2.57 | K 1.7 | P 2.11 | H 1.43
